{"source": "a protein production outcome set (Wang et al. 2014)"}
{"assay": "label from the status in PepcDB records"}
{"sequence": "MSSFKGIFGFNRVELKDLLISSIAIAIVVVWPRGFPTFNIGFFLHFIAALLTVGIAFIFHELAHRTVARHFGAWSEFRAWYEGLALAIFLKIILGFTFIAPGAVYIHKDYLKTKENGLISVAGPLTNIVLAVLFMILPIPAIYYSGYYVDISSYGYFVNIFLAMFNLLPIYPFDGSKVMRWNFLVWAVLFIPLIVLYFFV", "protein production": "failed"}
{"sequence": "MSSGKDFFVHSHALCESENIGKDSRVWAFAHILPGARLGSECNVCDNVFIENDVIIGDRVTLKCGVQVWDGITIEDDVFIGPNATFTNDLFPRSKVYPQTFARTIIRKGASLGANCTILPGITIGINAMVGAGAVVTRSVPPNAIVVGNPAKIIGYVDAKPVNANSETRAEQKAPGVTATSVKNVTLHTMNEVADIRGSLSAGEFERSVPFKTERYFLVYDVPTAETRGEHAHRICHQFLVAVKGSVHVVADDGVNREEFILDKPNQGIHLPPMTWGIQYRYSQDAVLLVFASHYYDAGDYIRNYEEFKSLIANAELEHHHHHH", "protein production": "not failed"}
{"sequence": "MSSGNVFLLSIASSAGMNIRLVHRLIAASCAVVLCSTVGIPAGRAGDPFRSSNPQPISASTAAAFTAAFQQGNYPAAEQALQQALRQDSSDPLVFALAGSLAFAQQNRQAFADYARQTKSKAQAIAPQQPLRSQLYIAVGELMMAASTLLPQLTGDGGVPLAAVPQALQSLQTVYGSLRAAAQINPNDPELNLVQGFVDLIVATNLPLANPSGAIAKLEKASPRYLADRGIALGLRNLKRYPEAIQYVDRAIAAAPENPELRYLKAQILVEQSKATGDANLRRAAAAEFQKALAKSSQLPQPLVWQLFFEACNNQKTFDNRGQDCVSLRDQVTQAPGPWGPATLPPL", "protein production": "failed"}
{"sequence": "MSSIGYSRRFRLFRRGEVTVLEVMAGQKAYPDTLRYLLVPEGRPQPSGFVGYTVIRTPVKRIAVFSTTHIGFLDMLGRSDGIIGVSRPEFVNTPAVRSRIRSGAIKAIGMPFSPDVEALLNLEPDLVIAPALPAARKTDYQALVQAGIPVLVVAEWLEPSPLGRAEWIKLFGALVGKEKLARERFAAIESSYLKIAALSRNLPNRPTVLTGLPVKDAWYVPTGGSYVAAMLRDAGASYHWRDLPGTGSVPLTIEAVWPVALEAEYWLNTGTVSTLDELLAVDSRFGQMRSVRERRVWNNNRLVNAAGGNAYWESGVVRPDLILKDLVMILHPGLLRAHGIGEGELTFFQEVKLEHHHHHH", "protein production": "not failed"}
{"sequence": "MSSKGEGSSSTAEREVKKQVASVIPVTRKLVKTMAAKAIISALTPSGCGRHSDSTGDGKELKPFKKKEGSVIPKERELVKTKAAKAIFSLFRPSCDGKQSSQPSRDGDGDHDGKRVYPTRY", "protein production": "failed"}
{"sequence": "MSSMGDQRGTRVYVGNLTDKVKKDDLEGEFTKYGKLNSVWIAFNPPGFAF", "protein production": "failed"}
{"sequence": "MSSNECFKCGRSGHWARECPTGGGRGRGMRSRGRGGFTSDRGFQFVSSSLPDICYRCGESGHLAKDCDLQEDACYNCGRGGHIAKDCKEPKREREQCCYNCGKPGHLARDCDHADEQKCYSCGEFGHIQKDCTKVKCYRCGETGHVAINCSKTSEVNCYRCGESGHLARECTIEATA", "protein production": "not failed"}
{"sequence": "MSSPATTITFFFFFTLSSFFYITSSLQNNNNNKHTATVNSLNIPSAAAEITLVNPKLPPRSLSLTSSKKFEGSSNLVHLRYHMGPVLSSSPINIYVIWYGQWSRPHKSLIRDFLNSISDAKAPSPSVSEWWRTASLYTDQTGSNVSRSVLIAGEYSDSKYSHGQHLTRLTIQEVIASAARSASFPVDHKNGMYLVLTSHDVTMQDFCRAVCGFHYFTFPSMVGYTMPYAWVGQSGKQCPEVCAYPFALPGYMGHGGPGELRPPNGETGVDGMVSVIGHELAEVVSNPLINAWYAGEDPTAPTEIGDLCEGLYGSGGGGGYIGQVMRDREGKTFNMNGKGGRKFLVQWIWNPNLKACSGPNSVD", "protein production": "failed"}
{"sequence": "MSSPVISPETKTGKKILLAAPRGYCAGVDRAVETVERALEEYGAPIYVRKEIVHNRYVVDTLAEKGAIFVNEASEAPEGANMVFSAHGVSPMVHEEAAAKNIKAIDAACPLVTKVHKEVQRFDKQGFHILFIGHEGHEEVEGTMGHSVEKTHLVDGVAGIATLPEFLNDEPNLIWLSQTTLSVDETMEIVRELKVKFPQLQDPPSDDICYATQNRQVAVKAIAERCELMIVVGSRNSSNSVRLVEVAKQNGADNAYLVDYAREIDPAWFEGVETIGISSGASVPEILVQGVIERLAEFGYDDVEEVTSAAEKIVFALPRVLRHKN", "protein production": "not failed"}
{"sequence": "MSSPYILVLYYSRHGATAEMARQIARGVEQGGFEARVRTVPAVSTECEAVAPDIPAEGALYATLEDLKNCAGLALGSPTRFGNMASPLKYFLDGTSSLWLTGSLVGKPAAVFTSTASLHGGQETTQLSMLLPLLHHGMLVLGIPYSEPALLETRGGGTPYGASHFAGADGKRSLDEHELTLCRALGKRLAETAGKLGS", "protein production": "not failed"}
{"sequence": "MSSRAKRLTHLASLPSMSRALLKKILHFDETLTVIFKQSHVQLSETYGLSTKKARHLYEHLRRVSTDFWSEYYEKKQIVPVTIFDKGYPNLLKEIYDPPFVLFCRGRMNTLYSEKRLAIVGTRKTSTTGLKSLELLIPPLLQDGWVIVSGFAAGVDIHAHQLTVKNGGQTIAVLAHGHDNLYPAAHRPFAEHEMVSQLMISEYPPYVKPRPWQFPERNRIISGLCAGTVVIEAKEKSGSLITADQALEQGRDVFAVPGAITNQKAAGTNQLIQQGAKLIQRADDIIEELCGFQQSCDSDKFF", "protein production": "failed"}
{"sequence": "MSSRPSRGAARLAAILDALPDALVLVNANGTVVNANTIALEAFETPGTALVGRGLLDLLPEFDSRLIPGSMRRPDSMDPRGRTKPTRMVARRTDGSEFPVEVTSANLENGQQAYDGYGYTGD", "protein production": "failed"}
{"sequence": "MSSSREENVYLAKLAEQAERYEEMVEFMEKVAKTVDTDELTVEERNLLSVAYKNVIGARRASWRIISSIEQKEESRGNDDHVSIIKDYRGKIETELSKICDGILNLLDSHLVPTASLAESKVFYLKMKGDYHRYLAEFKTGAERKEAAESTLVAYKSAQDIALADLAPTHPIRLGLALNFSVFYYEILNSPDRACSLAKQAFDEAISELDTLGEESYKDSTLIMQLLRDNLTLWNSDINDEAGGDEIKEASKHEPEEGKPAETGQ", "protein production": "failed"}
{"sequence": "MSSSSTSGLPATLPFEELAEAIKGRRSDYGHISGLQLDRFAPAEAWSSLPYRPVFVGDTETGVLHGGVVTAMLDESCGMAVQLALDGTRAIATLDLRIDYQKPATPGLDIKAHSVCYRTTRSIAFVRSTAYQESEDDPVATATACFMIGANRTNMLADRRMDSRSIPTLEAPEDPDGPFARSPFARCLGIRVNDDGTLTMPFSPKIIGNPILPAIHGGMTGAFLETTAIIGVARELGAAAPPKPIGLTINYLRSGRALDSFANVSIVKQGRRIVAFEARAWQDDADKPIATAFGHFMLRPTPGNDEE", "protein production": "failed"}
{"sequence": "MSSSTDTAMAAAEPIWLQHLAEQNIADFIPHRAPMILIDKIISHQQDALETEVLITPQSAYFDEHRQAVPNYVGIEYMAQSIAALAGVEAKLRHDKIRVGFLLGSRKLALHTAQYELNRRYRTQVKRLYQEESGLAVFDCQIYLLPEAQAQQTPLLVAEANVNVFQPQDTQAYIASSQQA", "protein production": "failed"}
{"sequence": "MSSSTGALHWQTAQAALARRDLGVAGSALQALLEVEPTHVSARVLLAGTVLANGRMREAVAQLQLAARDVDDDVAMRCRVAQALLRVGAHRQLHALLRHPSVMQCRDGATLALLAHVHQSLGEHVDALAMMQRAQVCGFDGPDFRFFLAVQLQFNGRLDDAAQALEQTLALVPGYGRAALTRARLRRQTVSSNHVDQLRQQLQRSKPDSEDRAGLAFALYKELEDLGDTDAAWDALQHGNAVMHARLRHDADAEASLYARLGTLAEQGVFAAQASDADAVALQGPQPIFVLGLPRSGTTVLERMLGNHSQIVSAGELNDFGHQLRWGADQAGRSLLDAGLLQAFPTLDYTQIGARYLEQTQWRAGPARWYIDKLPANAVAIGAIARALPGALIVHLVREPMAVCFSNYRALFGDSYAYSYDVHTLARHYQAYHGLMAQWRAALPGRVIDVDYTQMVRDPSTVLQQLMARCGLDIEPGQSDITRNAAASATLSSVQVREGVHSRNVEHWRRYAMQLEPLRQALAEAGLIDAGLH", "protein production": "failed"}
{"sequence": "MSSSVVAETVPSGSGSWFSHFKATLVLGIPLIGAQLAQLGIHTTDMVIVGQLGAEKLAAMVLAGQFFFVVFIFGSGFSVAVVPMVAQAYGQGDATSARRSLRMGMWVAIAYWLLALPIFFNAERILVYLGQNPNVAALTGHYLAIAKFGLLPALLFYVLRGLVSAIGRAGIILYVTIIMLVMNGLMAYVLVFGHFGLPAMGMNGAAVVAVIVNAFSFIFIVAYVQTREETKKYELFVRFWRPDWHALFEVLRLGLPISITILAEVTLFAAASILMGQIGTVQLAAHGIALQLASIAFMIPLGLSQAATVRVGVARGQGDFKNLIRASIMIYAIACGIALCGGILFAAVPEFLAKWFLDPKLPEAAEVLAYASSLVVIAGIFQLVDGIQAVTAGLLRGLKDARIPAMLALISYWPIGLALAWTMAFPLGFGGRGVWFGFVIGLSTAAVLLTVRFVLLVKREMKTAR", "protein production": "failed"}
{"sequence": "MSSTKLIVLKSKELIYTAILLALIVVFVIILINMFKRNDKSDGSQSGPAKAVSAPADPGTGIYNTRYTPGTYSSPLILGENTLSVIVTVDDCQITDVSFQQMGETITTMYPLLESSLEDINTQLHYISSVDDIIPSGDSTYTTKLIIDSIKNALKEAVVN", "protein production": "failed"}
{"sequence": "MSSVSDVAFFMEVVKAGTLSGAAQELGVSTAAVSRRLANLEVRLGIRLLNRTTRRAAVTYEGELYLAEGKKILGELEELEQRLASAHSVPKGLLRVNATFGFGRQFIAPAIADFVELHPDVDVQLSLSDRPVNLIEDGFDVCIRFGDLPDARLTSRKIACNRRLLCASPGYLERFGIPASPMDLQRHRCIVIRESDETYGAWHLYSGAAQANVKVRGTVSTNDGEVAVDWALRGLGILLRSEWNVAPYLRSGRLREVLGDWRFPPADIHAVYPMKSNLSAKVRAFVSHLDKHFEPYRPRAEGKSRW", "protein production": "failed"}
{"sequence": "MSTALATLAGKLAERVGMDSVDPQELITTLRQTAFKGDASDAQFIALLIVANQYGLNPWTKEIYAFPDKQNGIVPVVGVDGWSRIINENQQFDGMDFEQDNESCTCRIYRKDRNHPICVTEWMDECRREPFKTREGREITGPWQSHPKRMLRHKAMIQCARLAFGFAGIYDKDEAERIVENTAYTAERQPERDITPVNDETMQEINTLLIALDKTWDDDLLPLCSQIFRRDIRASSELTQAEAVKALGFLKQKATEQKVAA", "protein production": "failed"}
{"sequence": "MSTAVASAPRSGQVLADLLPASRVRDAALVLGGAALTGLAAQISLPVPGSPVPVTGQTFAALLVGTALGAGRGFLSLAVYALVGMAGVPWFAGGGSGAAAPSFGYILGMLLAATVVGALARRGADRSVLRTAGAMLLGEAIIYAIGVPYLAFATGMSLTAAIAAGLTPFLIGDALKAALAMGVLPTAWKFLNR", "protein production": "failed"}
{"sequence": "MSTAVFLGFIVLSLYLALRSRKGTGSQSAHDFFVASRQFGAFLVFFLAAGEIYSVATMVGFAGGIYAKGPTYGIWFLGYILLAYPLGYFLAPKIWEAGQRFNAITLADLFKGHFDNRAVEFVVALSSILFLLPMAQLQFTGLIAAFRGLGWSFQPLHLVLIAAVLAFTYIAISGVRSSAYVAVLKDVLMVVAIVVTGLAVAGEVGVAKVFHVASEHVSNRMNDEQLRFSMSTILFQSLGFYMMPISVQFIYTAKSADTIRRTQVAMPLYMLMYPFLVLASYYALTRSDTLATANEAFFVAATHLLPSWLLGLVAAAAALSGLLVLTGMCLAIGPIVTRNLLPHLPESRQKAGAKGVIVVYLIVSILMTLMAPNLMLTLINTTYYGVTQFLPGMIVILFSLRVRPSAVVLGILTGQLMAVVLYLEKVDLGGINLGLPCLAANVVVMVVLNLLRTPKGLQATA", "protein production": "failed"}
{"sequence": "MSTDFAAARLNMVESQIRTADVTDLPLQDALRVVARESVVPASKAYLAYADADIEYAPGRWLLRPREVGKLLQALKPREGETVLAIAAPYAAAVLEKMGLSVTRHDGEDLKTVPAGAYDVIVCEGAVAVAPKSWQDALAHGGRLGVVERTGPVGRAAIYLRAEDGVGRRAAFDASPPLLAGFEAETGFSF", "protein production": "failed"}
